Experimental findings from patent US20230250147A1, “GLP-1R AGONISTIC PEPTIDES WITH REDUCED ACTIVITY” (SANOFI, priority 2020, published 2023) are described below.

In one data set the target is T1, Monkey GLP-1R (Macaca fascicularis, UniProt F8V479).
T1 construct: expressed in transfected cells; host or cells: HEK-293
Kind of data set: HTRF cAMP assay in HEK-293 cells, monkey GLP-1R. The format is cell-based. Here is the method:
(§1) Recombinant HEK-293 cells were grown in T175 culture flasks placed at 37° C. to near confluence in medium (DMEM with 10% FBS) and collected in 2 mL vials in cell culture medium containing 10% DMSO in concentrations of 1-5×10^7 cells/mL. Each vial contained 1.8 mL cell suspension. The vials were slowly frozen to −80° C. in an isopropanol chamber, and then transferred to liquid nitrogen for long term storage.
(§2) Prior to their use, frozen cells were thawed quickly at 37° C., washed with 20 mL cell buffer (1×HBSS; 20 mM HEPES, 0.1% BSA) and centrifuged for 5 minutes at 900 rpm. Cells were resuspended in assay buffer (cell buffer plus 2 mM IBMX) and adjusted to a cell density of 1×10^6 cells/mL. For measurement, 5 μL cell suspension (final 5×10^3 cells/well) and 5 μL of test compound were added to a well of a 384-well plate, followed by incubation for 30 minutes at room temperature. […] The cAMP content of cells was determined using a kit from Cisbio Corp. (cat. no. 62AM4PEC) based on Homogenous Time Resolved Fluorescence (HTRF).
On the technique in general: TR-FRET usually uses a lanthanide donor and a delayed reading to cut background.

The target in the next data set is T2, Mouse GLP-1R (Mus musculus, UniProt O35659).
T2 construct: expressed in transfected cells; host or cells: HEK-293
T2 sequence (O35659 22-463): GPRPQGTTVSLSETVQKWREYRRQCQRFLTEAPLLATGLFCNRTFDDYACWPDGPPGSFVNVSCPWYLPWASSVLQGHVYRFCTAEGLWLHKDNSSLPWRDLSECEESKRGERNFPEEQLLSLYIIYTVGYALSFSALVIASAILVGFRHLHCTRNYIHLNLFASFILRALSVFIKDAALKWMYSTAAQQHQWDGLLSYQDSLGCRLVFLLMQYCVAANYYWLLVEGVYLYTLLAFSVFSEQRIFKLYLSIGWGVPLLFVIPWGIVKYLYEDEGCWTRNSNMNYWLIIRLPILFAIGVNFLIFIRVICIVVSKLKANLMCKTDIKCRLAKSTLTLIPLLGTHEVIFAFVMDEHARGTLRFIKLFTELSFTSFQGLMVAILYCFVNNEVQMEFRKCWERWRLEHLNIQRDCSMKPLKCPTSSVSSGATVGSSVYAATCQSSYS
Kind of data set: HTRF cAMP assay in HEK-293 cells, mouse GLP-1R. The format is cell-based. How it is done: as §1, §2

In a further data set the target is T3, Human GLP-1R (Homo sapiens, UniProt P43220).
T3 construct: expressed in transfected cells; host or cells: HEK-293
T3 sequence (P43220 24-463): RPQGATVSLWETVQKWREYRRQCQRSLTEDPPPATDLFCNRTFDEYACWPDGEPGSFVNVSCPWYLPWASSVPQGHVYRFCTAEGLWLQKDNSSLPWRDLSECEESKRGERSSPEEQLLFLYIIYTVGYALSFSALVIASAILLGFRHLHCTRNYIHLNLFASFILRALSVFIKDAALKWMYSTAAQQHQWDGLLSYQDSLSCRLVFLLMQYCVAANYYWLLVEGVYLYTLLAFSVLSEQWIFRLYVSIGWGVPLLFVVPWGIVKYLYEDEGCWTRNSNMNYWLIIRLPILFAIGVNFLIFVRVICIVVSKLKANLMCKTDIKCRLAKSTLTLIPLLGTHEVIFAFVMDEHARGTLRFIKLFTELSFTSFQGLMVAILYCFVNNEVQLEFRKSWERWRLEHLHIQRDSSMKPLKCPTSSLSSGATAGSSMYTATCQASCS
Kind of data set: HTRF cAMP assay in HEK-293 cells, human GLP-1R. The class given is cell-based. Here is the method: as §1, §2

Data set [1] concerns the target T4, human FGFR1c together with human beta-Klotho (KLB) (human, UniProt P11362 22-822; Q86Z14 1-1044). In words: cell-based or functional assay.
Data set [2] addresses T4, human FGFR1c together with human …. Kind of data set: cell-based or functional assay. This is another data set of the same source.
Data set [3] is described as follows: Thermal shift assay (DSF, Sypro Orange). The format is physicochemical. As to conditions: Data generated via DSF. An excerpt: In addition, for some proteins a thermal shift assay was applied to analyze thermostability in imitation of differential scanning fluorimetry (DSF or ThermoFluor™) assays (Ahmad S. et al. (2012) Protein Science 21: 433-446; Pantoliano et al. (2001) J. Biomol. Screen 6: 429-440; Niesen et al. (2007) Nat. Protoc. 2: 2212-21). This assay is based on the observation that hydrophobic fluorescent dyes, such as Sypro™ Orange (Life Technologies, cat. No. S6651), increase their fluorescence when they bind to hydrophobic patches on a protein.
Proteins were tested by mixing a solution of each protein in PBS (Gibco) with a 160× solution of Sypro™Orange (diluted in water from a 5000×DMSO stock as provided by the supplier). The sample volume was adjusted to 20 μL with PBS. Typical conditions contained 0.8 mg/mL protein and 8× Sypro™Orange in the final mixture, but protein concentrations could be varied between 0.4 mg/mL and 1.2 mg/mL. Samples were dispensed in 96-well PCR plates (BioRad Semi-Skirt 96 white) and shortly centrifuged to remove air bubbles. […] For excitation and quantification of fluorescence, filters for wavelengths of 485 nm and 575 nm were chosen. […] In curves of fluorescence intensity against temperature, the inflection point was chosen as the measure for the melting temperature (Tm).
For orientation: Differential scanning fluorimetry follows unfolding on heating by fluorescence.

Data set [4] can be described thus: Pharmacokinetics after single subcutaneous administration in mouse. As to conditions: FGF21 intact assay; 0.3 mg/kg subcutaneous. The class given is in vivo, female C57BI/6 mice. Here is the method:
Plasma concentrations and pharmacokinetic parameters of GLP-1 RA/FGF21 Fc fusion proteins were determined after single subcutaneous administration of 0.3 mg/kg in solution to female C57BI/6 mice or male Cynomolgus monkeys using three different methods. Blood samples were obtained at time points from 30 minutes to 168 hours after dosing. […]
a.) Bioanalytical Screening Method for Quantification of the Intact FGF21 Part of the GLP-1 RA/FGF21 Fc Fusion Proteins Plasma samples were analyzed for the intact FGF21 part of the fusion proteins with an ELISA kit (F1231-K01, Eagle Biosciences, USA). […] For the detection of this immunocomplex, the well was then incubated with a substrate solution in a timed reaction and then measured in a spectrophotometric microplate reader. […]
b.) Bioanalytical Screening Method for Quantification of the Intact Full-Length Fusions Proteins The concentration of the full-length GLP-1RA/FGF21 Fc fusion proteins in plasma were determined utilizing an ELISA method. […] Following washing 3 times with 300 μL PBS-T 150 μL read buffer was added to the wells. […]
c.) Bioanalytical Screening Method for Quantification of the Intact GLP-1 Part of the GLP-1 FGF21 Fc Fusion Proteins Plasma samples were analyzed for the intact GLP-1 part of the fusion proteins with a GLP-1 ELISA method. […]

Marks after values point to notes of the source that are not given here. No end group written: not given here.

T4 sequence (P11362 22-822, chain 1 of 2): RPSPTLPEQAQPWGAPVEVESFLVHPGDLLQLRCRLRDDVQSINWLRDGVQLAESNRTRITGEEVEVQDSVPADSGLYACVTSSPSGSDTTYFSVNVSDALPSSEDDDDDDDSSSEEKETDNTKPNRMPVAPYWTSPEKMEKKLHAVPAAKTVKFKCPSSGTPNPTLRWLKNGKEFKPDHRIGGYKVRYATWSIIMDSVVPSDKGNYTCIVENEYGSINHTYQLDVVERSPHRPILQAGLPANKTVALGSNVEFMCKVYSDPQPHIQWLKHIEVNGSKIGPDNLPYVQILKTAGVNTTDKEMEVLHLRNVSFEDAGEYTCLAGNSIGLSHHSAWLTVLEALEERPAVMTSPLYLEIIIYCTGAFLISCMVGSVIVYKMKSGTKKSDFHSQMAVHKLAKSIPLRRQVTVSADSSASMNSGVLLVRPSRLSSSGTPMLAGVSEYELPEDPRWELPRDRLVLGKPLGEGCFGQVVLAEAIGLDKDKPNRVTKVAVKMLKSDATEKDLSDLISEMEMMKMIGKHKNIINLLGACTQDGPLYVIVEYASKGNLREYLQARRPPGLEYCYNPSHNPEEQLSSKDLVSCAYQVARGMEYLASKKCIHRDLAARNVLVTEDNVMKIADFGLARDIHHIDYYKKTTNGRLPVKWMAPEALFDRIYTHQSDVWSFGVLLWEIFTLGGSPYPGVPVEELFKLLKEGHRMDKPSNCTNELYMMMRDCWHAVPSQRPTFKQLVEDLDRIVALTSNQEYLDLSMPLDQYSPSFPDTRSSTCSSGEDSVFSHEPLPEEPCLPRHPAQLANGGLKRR
T4 sequence (Q86Z14 whole entry, chain 2 of 2): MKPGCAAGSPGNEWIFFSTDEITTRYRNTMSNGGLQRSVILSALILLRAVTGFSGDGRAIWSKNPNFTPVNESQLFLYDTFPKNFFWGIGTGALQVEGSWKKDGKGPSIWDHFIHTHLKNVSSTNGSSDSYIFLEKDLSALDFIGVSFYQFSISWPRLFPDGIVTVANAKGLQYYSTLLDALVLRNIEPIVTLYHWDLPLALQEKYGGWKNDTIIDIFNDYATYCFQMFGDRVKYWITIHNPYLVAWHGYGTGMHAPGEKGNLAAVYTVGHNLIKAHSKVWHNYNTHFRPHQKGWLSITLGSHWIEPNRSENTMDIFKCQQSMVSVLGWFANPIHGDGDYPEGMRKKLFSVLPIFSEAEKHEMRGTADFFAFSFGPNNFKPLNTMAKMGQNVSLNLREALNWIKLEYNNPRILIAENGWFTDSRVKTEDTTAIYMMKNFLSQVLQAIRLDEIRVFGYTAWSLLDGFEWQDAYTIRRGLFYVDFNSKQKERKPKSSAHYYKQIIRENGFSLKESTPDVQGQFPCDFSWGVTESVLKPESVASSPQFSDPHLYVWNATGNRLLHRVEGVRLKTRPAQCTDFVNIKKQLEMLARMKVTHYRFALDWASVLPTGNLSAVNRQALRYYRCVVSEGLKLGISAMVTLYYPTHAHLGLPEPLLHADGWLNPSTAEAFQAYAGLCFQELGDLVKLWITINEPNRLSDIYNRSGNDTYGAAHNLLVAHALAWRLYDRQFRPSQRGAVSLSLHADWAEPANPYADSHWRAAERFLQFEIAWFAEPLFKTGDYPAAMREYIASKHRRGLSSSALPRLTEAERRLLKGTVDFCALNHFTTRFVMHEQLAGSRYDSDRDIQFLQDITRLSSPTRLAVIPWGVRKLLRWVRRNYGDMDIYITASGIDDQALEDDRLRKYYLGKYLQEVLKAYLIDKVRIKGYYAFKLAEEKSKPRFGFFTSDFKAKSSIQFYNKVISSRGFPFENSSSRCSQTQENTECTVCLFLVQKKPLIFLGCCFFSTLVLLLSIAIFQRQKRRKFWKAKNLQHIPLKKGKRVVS
T1 sequence (F8V479 24-463): as the sequence (P43220 24-463) above, with S112N, F120S, S202G, L205V, L237F, W241R, I249V counted along it

In the case of “GHGEGTFTSDKSKQLEEEAVRLFIEWLKAGGPKKIRYS-NH2 [compound 278]”, the results for the EC50 at Monkey GLP-1R, on Mouse GLP-1R and at Human GLP-1R were 5.74 pM, 7.65 pM and 10.5 pM, respectively.

B1: G-FGF21 (mature human wild-type FGF21 with an additional N-terminal Gly) (ligand)
chain: GHPIPDSSPLLQFGGQVRQRYLYTDDAQQTEAHLEIREDGTVGGAADQSPESLLQLKALKPGVIQILGVKTSRFLCQRPDGALYGSLHFDPEACSFRELLLEDGYNVYQSEAHGLPLHLPGNKSPHRDPAPRGPARFLPLPGLPPAPPEPPGILAPQPPDVGSSDPLSMVGPSQGRSPSYAS
B1: the “pERK ICW EC50” value in data set [1] is 0.17 nmol/L. In addition, in data set [2], the “pFGFR ICW EC50” value came out at 4.49 nmol/L.

B2: 252 (protein)
chain: B1 chain
modifications: G-FGF21
With B2, in data set [3], the “Tm (melting temperature)” value is recorded as 43.1* ° C. The t1/2 mouse in data set [4] came to 42 min.

Usually EC50 stands for the concentration at which the effect is half-maximal.
